Laboratory results as given in publication PMC7709125, “Bringing the Heavy Chain to Light: Creating a Symmetric, Bivalent IgG-Like Bispecific” (Antibodies, 2020).

Target: T1, 5FV2 soluble VH domain targeting human VEGF (human)
T1 construct: also called anti-hVEGF VH domain; phage-derived VH domain 5FV2
Experiment: SPR
Details: both partners purified

T1 sequence (heavy, as listed by the source): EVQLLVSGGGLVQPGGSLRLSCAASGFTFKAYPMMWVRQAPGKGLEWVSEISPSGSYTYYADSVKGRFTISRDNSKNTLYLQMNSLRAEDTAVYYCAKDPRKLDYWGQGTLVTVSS

Kd: 3 nM
kon: 730000 M⁻¹ s⁻¹
B1: human vascular endothelial growth factor (VEGF) (ligand, UniProt P15692 1-395, looked up)
chain: APMAEGGGQNHHEVVKFMDVYQRSYCHPIETLVDIFQEYPDEIEYIFKPSCVPLMRCGGCCNDEGLECVPTEESNITMQIMRIKPHQGQHIGEMSFLQHNKCECRPKKDRARQENPCGPCSERRKHLFVQDPQTCKCSCKNTDSRCKARQLELNERTCRCDKPRR
notes: also called hVEGF; human VEGF; source: commercially available antigen
